Reference: patent US7608265B2, “Treatment for bacterial infections” (priority 2004, dated 2009)
Values after ≈ are worked out from the molar mass of the structure shown. Read-outs that look alike come from different tables or passages of the source.

Assays:
[1] = test system: Clostridium difficile NCR 1104; assay: microbe, parasite or virus in culture; assay type: cell-based
[2] = test system: Vancomycin resistant Enterococcus faecium; assay: Combination drug MIC (checkerboard), Enterococcus faecium; assay type: cell-based
[3] = test system: C. difficile 14000287; assay: Combination drug MIC (checkerboard), C. difficile 14000287, Brucella broth; assay type: cell-based, Clostridium difficile
[4] = test system: C. difficile NCTC 11204; assay: Combination drug MIC (checkerboard), C. difficile NCTC 11204, RCM; assay type: cell-based, Clostridium difficile
[5] = test system: Clostridium difficile; assay: Growth of Clostridium difficile in the presence of SCFA and H1L1 (OD600); assay type: cell-based; conditions: for Mean Optical Density at 24 Hours: OD600
Method: The three SCFAs used were acetate, propionate and butyrate.
Each was prepared to a concentration of 1 M as follows: • Sodium acetate FW 82.03-82.03 g in 1 litre dH2O • Sodium butyrate FW 110.09-110.09 g in 1 litre dH2O • Sodium propionate FW 96.06-96.06 g in 1 litre dH2O
The three solutions were combined in a ratio of 70:20:10 respectively. Therefore, in the final solution the concentrations were sodium acetate 0.7 M, sodium butyrate 0.2 M and sodium propionate 0.1 M. The final concentration of total SCFA was 1 M.
From this stock solution concentrations of 5, 10, 20, 30, 40 and 50 mM total SCFA were prepared using reinforced clostridial medium (RCM, DIFCO).
Reinforced clostridial medium (RCM) was prepared according to the manufacturers instructions: 38 g in 1 litre dH2O
Cultures were only removed from anaerobic conditions immediately prior to use.
An overnight suspension of C. difficile was made by inoculation 10 ml of RCM medium with colonies from a 48 hour old Columbia Blood Agar plate of the organism. The suspension was incubated for 24 hours at 37° C. under anaerobic conditions.
In a flat-bottomed 96 well microtitre plate control solutions (200 μl) were placed in the wells as outlined below in Table 4. Each control used 3 wells.
In a flat-bottomed 96 well microtitre plate (rows labelled A-H, columns labelled 1-12) test solutions (100 μl) were placed in the wells as detailed below. The two test solutions, SCFA plus H1L1, give a combined volume of 200 μl. Each test used 2 wells. […] Wells in columns 1 and 2 contained 16 μg/ml H1L1; in columns 3 and 4, 8 μg/ml H1L1; in columns 5 and 6, 4 μg/ml H1L1; in columns 7 and 8, 2 μg/ml H1L1; in columns 9 and 10, 1 μg/ml H1L1; in columns 11 and 12, 0.5 μg/ml H1L1. Row G was empty. 200 μl RCM was placed into all the wells in row H as a growth control for the plate.
The overnight suspension, culture at late log phase, was used to inoculate the microtitre plates. 20 μl (approx 10% inoculum) was added to all the wells, except for the media/negative control on the control plate.
Plates were incubated at 37° C. under anaerobic conditions for 24 hours.
Optical density readings (OD600 nm) were made at time points zero and 24 hours. Average OD600 nm readings were determined.

[6] = test system: C. difficile acetyl-CoA acetyl transferase (thiolase); assay: Immunoblot of H1L1 against cloned acetyl-CoA acetyl transferase; assay type: binding, Clostridium difficile; conditions: H1L1 at 1:10 (approximately 400 μg/ml), purified His-tag thiolase, band just under 50 kD marker
C. difficile acetyl-CoA acetyl transferase (thiolase), sequence (as listed by the source): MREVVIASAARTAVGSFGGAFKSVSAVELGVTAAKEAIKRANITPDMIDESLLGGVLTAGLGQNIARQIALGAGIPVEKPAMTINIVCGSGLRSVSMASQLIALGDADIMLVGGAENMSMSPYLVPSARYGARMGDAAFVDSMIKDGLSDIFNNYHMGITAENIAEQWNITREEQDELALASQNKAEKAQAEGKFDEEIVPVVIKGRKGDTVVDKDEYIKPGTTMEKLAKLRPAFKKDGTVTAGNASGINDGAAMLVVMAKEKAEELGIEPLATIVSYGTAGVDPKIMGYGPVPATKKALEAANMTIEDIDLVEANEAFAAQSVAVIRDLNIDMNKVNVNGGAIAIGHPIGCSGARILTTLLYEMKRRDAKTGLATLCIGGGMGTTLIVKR
Method: Cloned and purified acetyl-CoA acetyl transferase was mixed 1:1 with loading buffer and DTT and put on heating block at 90° C. for 5 minutes. 5-15 μl was separated for 35 minutes on a 10% BisTris gel (Invitrogen) using NuPAGE-MES SDS running buffer (Invitrogen).
The proteins were transblotted onto Invitrolon PVDF membrane (Invitrogen Ltd, Carlsbad, Calif., USA) and blocked in 5% skimmed milk in 0.1% Tween20 in 10 mM PBS for 1 hour. The membrane was incubated with H1L1 at 1:10 (concentration approximately 400 μg/ml) in 0.1% Tween20 in 10 mM PBS for 1 hour. Washed three times for 5 minutes with 0.1% Tween20 in 10 mM PBS and then incubated for one hour with S-protein HRP conjugate (Novagen) at 1:1000.

[7] = gentamicin + H1L1 combination, Brucella broth
[8] = 8 μg/ml of H1L1 and SCFA from 10-50 mM

Molecule: CN[C@H](CC(C)C)C(=O)N[C@H]1C(=O)N[C@@H](CC(N)=O)C(=O)N[C@H]2C(=O)N[C@H]3C(=O)N[C@H](C(=O)N[C@H](C(=O)O)c4cc(O)cc(O)c4-c4cc3ccc4O)[C@H](O)c3ccc(c(Cl)c3)Oc3cc2cc(c3O[C@@H]2O[C@H](CO)[C@@H](O)[C@H](O)[C@H]2O[C@H]2C[C@](C)(N)[C@H](O)[C@H](C)O2)Oc2ccc(cc2Cl)[C@H]1O [Vancomycin, vancomycin]
- FICI [1]: 0.125
- MIC (μg/ml) of each agent Combination [1]: 0.125 µg/mL
- Outcome [1]: Synergy
- MIC ([1]; Clostridioides difficile, NCR1104, 48 h, read-out: MIC (μg/ml) of each agent Alone): 1 µg/mL (≈ 0.69 µM)
- FICI [2]: 0.37
- MIC (μg/ml) of each agent Combination [2]: 16 µg/mL
- Outcome [2]: Synergy
- MIC ([2]; Enterococcus faecium, 24 h, read-out: MIC (μg/ml) of each agent Alone): 128 µg/mL

Molecule: gentamicin [reference compound]
- MIC (μg/ml) of each agent Alone ([3]; Brucella broth): 8 µg/mL
- FIC (μg/ml) [3, 7]: 0.25
- FICI [3, 7]: 0.266
- MIC (μg/ml) of each agent Combination [3, 7]: 2 µg/mL
- Outcome [3, 7]: Synergy
- MIC (μg/ml) of each agent Alone [4]: 16 µg/mL
- FIC (μg/ml) ([4]; gentamicin + H1L1 combination): 0.25
- FICI ([4]; gentamicin + H1L1 combination): 0.375
- MIC (μg/ml) of each agent Combination ([4]; gentamicin + H1L1 combination): 4 µg/mL
- Outcome ([4]; gentamicin + H1L1 combination): Synergy

B1: H1L1: synthetic antibody S Tag-CDH1-Linker-CDL1-His Tag, SEQ ID NO: 41, from dominant VH and VL of C. difficile patients; binds acetyl-CoA acetyltransferase (protein)
chain: EVQLVESGPGLVKPSETLSLTCTVSGGSVSSGSYSWSWIRQRPGQGLEWIGFIYYTGYTSYKSSLKSRVSLSVDTSNDQFSLSLSSVTAADTAVYYCAREIRAPDHHDFSGYLGRWGQGTLVTVSSGGSGGGGSGGGGSASKSSELTQDPAVSVALGQTVRITCQGDSLRSYYASWYQQKPGQAPVLVIYGKNNRPSGIPDRFSGSSSGNTASLTITGAQAEDEADYYCNSRDSTGNQLFGGGTKVTVLG
modifications: synthetic H1L1 antibody
- FIC (μg/ml) [1]: 0.0004
- MIC (μg/ml) of each agent Combination [1]: 0.25 µg/mL
- Outcome [1]: synergy (key: synergy was defined by a value of <=0.5; indifference was defined by a value of >0.5 to <4; antagonism was defined by a value of >=4.0)
- MIC (μg/ml) of each agent Alone ([2]; agent alone, 24 h): 512 µg/mL
- FIC (μg/ml) ([2]; vancomycin + H1L1 combination): 0.25
- MIC (μg/ml) of each agent Combination ([2]; vancomycin + H1L1 combination): 128 µg/mL
- Outcome ([2]; vancomycin + H1L1 combination): synergy (synergy was defined by a value of <=0.5)
- Outcome of combination ([3]; H1L1 and vancomycin versus C. difficile 14000287): synergy (synergy was defined by a value of <=0.5)
- MIC (μg/ml) of each agent Alone ([3]; Brucella broth): 512 µg/mL
- FIC (μg/ml) [3, 7]: 0.0156
- MIC (μg/ml) of each agent Combination [3, 7]: 8 µg/mL
- Outcome [3, 7]: synergy (synergy was defined by a value of <=0.5)
- MIC (μg/ml) of each agent Alone [4]: 512 µg/mL
- FIC (μg/ml) ([4]; gentamicin + H1L1 combination): 0.125
- MIC (μg/ml) of each agent Combination ([4]; gentamicin + H1L1 combination): 64 µg/mL
- Outcome ([4]; gentamicin + H1L1 combination): synergy (synergy was defined by a value of <=0.5)
- Interaction of H1L1 and SCFA [5, 8]: Synergy
- optical density at 24 hours [5, 8]: 0.296-0.330
- Effect on growth ([5]; 16 μg/ml of H1L1 alone): inhibition
- Effect on growth ([5]; 0.5, 1, 2, 4 and 8 μg/ml of H1L1 alone): No effect
- Interaction of H1L1 and SCFA ([5]; 1, 2 and 4 μg/ml of H1L1 and 5 mM of SCFA (data not shown)): Indifference
- Mean Optical Density at 24 Hours ([5]; H1L1 0.5 μg/ml alone): 0.450
- Mean Optical Density at 24 Hours ([5]; H1L1 1 μg/ml alone): 0.440
- Mean Optical Density at 24 Hours ([5]; H1L1 2 μg/ml alone): 0.440
- Mean Optical Density at 24 Hours ([5]; H1L1 4 μg/ml alone): 0.440
- Mean Optical Density at 24 Hours ([5]; H1L1 8 μg/ml + SCFA 10 mM): 0.310
- Mean Optical Density at 24 Hours ([5]; H1L1 8 μg/ml + SCFA 20 mM): 0.296
- Mean Optical Density at 24 Hours ([5]; H1L1 8 μg/ml + SCFA 30 mM): 0.305
- Mean Optical Density at 24 Hours ([5]; H1L1 8 μg/ml + SCFA 40 mM): 0.310
- Mean Optical Density at 24 Hours ([5]; H1L1 8 μg/ml + SCFA 50 mM): 0.330
- Mean Optical Density at 24 Hours ([5]; H1L1 8 μg/ml alone): 0.420
- Mean Optical Density at 24 Hours ([5]; H1L1 16 μg/ml + SCFA 10 mM): 0.308
- Mean Optical Density at 24 Hours ([5]; H1L1 16 μg/ml + SCFA 20 mM): 0.228
- Mean Optical Density at 24 Hours ([5]; H1L1 16 μg/ml + SCFA 30 mM): 0.308
- Mean Optical Density at 24 Hours ([5]; H1L1 16 μg/ml + SCFA 40 mM): 0.303
- Mean Optical Density at 24 Hours ([5]; H1L1 16 μg/ml + SCFA 50 mM): 0.281
- Mean Optical Density at 24 Hours ([5]; H1L1 16 μg/ml alone): 0.334
- Immunoblot response to the thiolase band [6]: strong response
